In the assay the target is ADPr-TAMRA (ADPrT). The assay is described as follows: fluorescence polarisation. Particulars: read at the highest titration point, about 75 µM RNF114 (left graph); parent: est. 50; read off a plot.

Consider “RNF114 (wild type, full-length) (from UniProt Q9Y508) R198E”, for which the response amounted to 13. Turning to “RNF114 (wild type, full-length) (from UniProt Q9Y508) W181D; G182E”, the response came to 6.

These data come from article PMC12583694, “RNF114 and RNF166 exemplify reader-writer E3 ligases that extend K11 polyubiquitin onto sites of MARUbylation” (The EMBO Journal, 2025).
